# Measurements reported in patent CN1800373A (RADIOLOGY INST OF PLA MILITARY, dated 2006).
# T1: VEGFR-3/Ig重组蛋白 (R&D research system corp.) (human, UniProt P35916 25-776)
# T1 construct: Bought protein; also called VEGFR-3/Fc; VEGFR-3/IgG; not shown: Ig/Fc part of the bought fusion
# T1 sequence (looked up): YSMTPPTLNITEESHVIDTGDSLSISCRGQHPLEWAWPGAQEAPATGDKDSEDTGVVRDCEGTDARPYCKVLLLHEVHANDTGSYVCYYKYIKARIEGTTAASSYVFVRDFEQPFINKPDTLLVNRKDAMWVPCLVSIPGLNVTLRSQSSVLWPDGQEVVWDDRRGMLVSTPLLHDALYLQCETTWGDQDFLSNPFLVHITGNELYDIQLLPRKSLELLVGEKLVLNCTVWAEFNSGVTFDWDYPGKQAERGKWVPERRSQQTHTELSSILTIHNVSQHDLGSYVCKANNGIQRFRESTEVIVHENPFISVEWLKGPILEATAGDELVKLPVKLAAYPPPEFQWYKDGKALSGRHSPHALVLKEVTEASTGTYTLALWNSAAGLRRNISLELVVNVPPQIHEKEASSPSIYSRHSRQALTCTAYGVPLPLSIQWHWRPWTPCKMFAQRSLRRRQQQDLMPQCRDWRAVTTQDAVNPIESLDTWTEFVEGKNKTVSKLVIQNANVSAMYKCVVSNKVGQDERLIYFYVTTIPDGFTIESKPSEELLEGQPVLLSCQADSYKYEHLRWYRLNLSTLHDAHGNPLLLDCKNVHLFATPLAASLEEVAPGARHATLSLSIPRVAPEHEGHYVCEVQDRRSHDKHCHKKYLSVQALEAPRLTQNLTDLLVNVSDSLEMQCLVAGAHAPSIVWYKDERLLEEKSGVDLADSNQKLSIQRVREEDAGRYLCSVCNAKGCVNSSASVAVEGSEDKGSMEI
# B1: 抗人VEGFR-3的单克隆抗体ABDD073 (antibody, mouse IgG2a, V domains shown)
# VH: QVQLQESGGGLVRPRGSLKLSCAASGFTFNTYAMNWVRQAPGKGLEWIARIRNKSNNYATYYANSVKDRFTISRGDSQSMLYLQMNNLKTEDTAMYYCVRDGYSLVHWGHGTLVTVS
# VL: DIVLTQSPASLAVSLGQRATISCRASKSVSTFGYSYMHWYQQKPGQPPKLLIYLASNLESGVPARFSGSGSGTDFTLNIHPVEEEDAATYYCQHSRELMYTFGGGTKLEIKR
# notes: The 132-residue entry was amplified with a primer that starts at ATG, so it may hold a leader; also called BDD073上清; monoclonal antibody of hybridoma BDD073 CGMCC No.1537
# B2: 重组人GST-VEGF-D (ligand, human, UniProt O43915 89-205, looked up)
# chain: FAATFYDIETLKVIDEEWQRTQCSPRETCVEVASELGKSTNTFFKPPCVNVFRCGGCCNEESLICMNTSTSYISKQLFEISVPLTSVPELVPVKVANHTGCKCLPTAPRHPYSIIRR
# notes: domain: VHD; Expressed in E. coli BL21(DE3), 38 kD, purified on a GST column; not shown: GST tag encoded by vector pGEX-5X-1 (Amersham)
# B3: 可溶性抗VEGFR-3单链抗体VL-linker-VH (scFv, not shown: large carriers)
# scFv: DIVLTQSPASLAVSLGQRATISCRASKSVSTFGYSYMHWYQQKPGQPPKLLIYLASNLESGVPARFSGSGSGTDFTLNIHPVEEEDAATYYCQHSRELMYTFGGGTKLEIKRGGGGSGGGGSGGSQVQLQESGGGLVRPRGSLKLSCAASGFTFNTYAMNWVRQAPGKGLEWIARIRNKSNNYATYYANSVKDRFTISRGDSQSMLYLQMNNLKTEDTAMYYCVRDGYSLVHWGHGTLVTVS
# Assays:
# 正常人IgG (北京中杉金桥有限公司) = assay: ELISA, coated normal human IgG 0.5 μg/mL, negative control
# [1] = biological target: VEGFR-3/Ig重组蛋白 (R&D research system corp.) (human) (UniProt P35916); assay: ELISA, coated VEGFR-3/Fc 0.5 μg/mL, negative control
# [2] = biological target: VEGFR-3/Ig重组蛋白 (R&D research system corp.) (human) (UniProt P35916); assay: ELISA, coated VEGFR-3/Fc 0.5 μg/mL, supernatant of hybridoma BDD073
# HEL细胞表面表达的VEGFR-3 = biological target: T2, HEL细胞表面表达的VEGFR-3 (human, UniProt P35916 25-1363); assay: Western blot of HEL cell lysate (Fig. 4)
# T2 construct: whole, on cells; On whole HEL cells in flow cytometry; in HEL cell lysate in the immunoblot; also called VEGFR-3多肽 (175kDa, 125kDa bands of HEL lysate)
# [3] = biological target: T1, VEGFR-3/Ig重组蛋白 (R&D research system …); assay: ELISA-type assay, OD450; VEGFR-3/Fc 1 and 2 μg/mL mixed with 20 μg/mL GST-VEGF-D (Fig. 1)
# [4] = biological target: VEGFR-3/Ig重组蛋白 (R&D research system corp.) (human) (UniProt P35916); assay: ELISA, coated VEGFR-3/Fc 0.5 μg/mL, scFv at 65 μg/mL
# [5] = biological target: VEGFR-3/Ig重组蛋白 (R&D research system corp.) (human) (UniProt P35916); assay: ELISA, coated VEGFR-3/Fc 0.5 μg/mL, scFv at 6.5 μg/mL
# [6] = biological target: VEGFR-3/Ig重组蛋白 (R&D research system corp.) (human) (UniProt P35916); assay: ELISA, coated VEGFR-3/Fc 0.5 μg/mL, scFv at 13 μg/mL
molecule,measurement,setting,value
正常鼠血清(1∶1000),OD 450,正常人IgG (北京中杉金桥有限公司),0.064 OD450
same,OD 450,[1],0.05 OD450
B1,OD 450,[2],0.889 OD450
same,binding result,HEL细胞表面表达的VEGFR-3,binds
B2,binding result,[3],binds
B3,OD 450,[4],1.01 OD450
same,OD 450,[5],0.515 OD450
same,OD 450,[6],0.73 OD450
